The source of these data is US20100297664A1 (published 2010).

In one test the target is Δmot #4 403-679. Put plainly: BIACORE.
Test [1] addresses full-length mortalin with an His tag (recombinant, expressed in Escherichia coli). Put plainly: BIACORE.

B1: Ab (52-3) (antibody, V domains shown)
VH: QVQLQQPGAELVKPGASVKLSCKASGYTFTSYWMHWVKQRPGQGLEWIGEINPSNGRTNYNEKFKSKATLTVDKSSSTAYMQLSSLTSEDSAVYYCARSRYYGSCYFDYWGQGTTLTVSS
VL: KIVMTQAAFSNPVTLGTSASISCRSSKSLLYSNGITYLYWYLQKPGQSPQLLIYQMSNLASGVPDRFSSSGSGTDFTLRISRVEAEDVGVYYCAQNLELPWTFGGGTKLEIK
In the case of B1, the affinity in the test with Δmot #4 403-679, expressed as Kd, was 4.61 nM.

B2: anti-mortalin monoclonal antibody 52-3 (antibody, V domains shown)
VH: QVQLQQPGAELVKPGASVKLSCKASGYTFTSYWMHWVKQRPGQGLEWIGEINPSNGRTNYNEKFKSKATLTVDKSSSTAYMQLSSLTSEDSAVYYCARSRYYGSCYFDYWGQGTTLTVSS
VL: KIVMTQAAFSNPVTLGTSASISCRSSKSLLYSNGITYLYWYLQKPGQSPQLLIYQMSNLASGVPDRFSSSGSGTDFTLRISRVEAEDVGVYYCAQNLELPWTFGGGTKLEIK
As for B2, the equilibrium dissociation constant (Kd) – broadly, a measure of binding affinity in units of concentration – in test [1] was determined as 8.17 nM.
